{"source": "patent US20100267609A1", "about": "(OKLAHOMA MEDICAL RESEARCH FOUNDATION, published 2010)", "binders": {"B1": {"name": "CPI-3: (ELDL*AVEF)-GG-(RRRRRRRRR) (peptide)", "peptide": "ELDLAVEFGG[dR][dR][dR][dR][dR][dR][dR][dR][dR]", "modifications": "numbers in words are those of the source; also: Leu4*Ala6: hydroxyethylene isostere -CH(OH)-CH2- replaces the amide bond"}, "B2": {"name": "CPI-2: FAM-Ahx-(ELDL*AVEF)-GG-(RRRRRRRRR) (peptide)", "peptide": "{FAM-Ahx}-ELDLAVEFGG[dR][dR][dR][dR][dR][dR][dR][dR][dR]", "modifications": "numbers in words are those of the source; also: Leu4*Ala6: hydroxyethylene isostere -CH(OH)-CH2- replaces the amide bond", "notes": "OM00-3 joined through Gly-Gly to nine D-arginines"}, "B3": {"name": "library bead Gly-Ile-Asp-Leu*Ala-Ala-Gln-Phe-Arg-Met-Gly-Gly-resin (peptide)", "peptide": "GIDLAAQFRMGG-resin", "modifications": "reading uncertain; also: hydroxyethylene isostere between Leu4 and Ala5, printed as Gly-Ile-Asp-Leu*Ala-Ala-Gln-Phe-Arg-Met-Gly-Gly-resin"}, "B4": {"name": "CPI-1: FAM-Ahx-(EVNL*AAEF)-G-([…]) (peptide)", "peptide": "{FAM-Ahx}-EVNLAAEFGYGRKKRRQRRR", "modifications": "numbers in words are those of the source; also: Leu4*Ala6: hydroxyethylene isostere -CH(OH)-CH2- replaces the amide bond", "notes": "OM99-2 joined through Gly to HIV tat residues 47-57; also called Fs[OM99-2]tat"}, "B5": {"name": "OM00-3 (ELDL*AVEF; Glu-Leu-Asp-Leu*Ala-Val-Glu-Phe) (peptide)", "peptide": "ELDLAVEF", "modifications": "numbers in words are those of the source; also: Leu4*Ala5: hydroxyethylene transition-state isostere -CH(OH)-CH2- replaces the peptide bond"}}, "key": {"[1]": {"target": "T1, memapsin 2 (spontaneously activated promemapsin 2-T1; amino acids 43-456 and 45-456 of SEQ ID NO: 8) (human, UniProt P56817 41-454)", "T1 construct": "also called Mep2; M2", "T1 sequence (P56817 41-454 Q214G)": "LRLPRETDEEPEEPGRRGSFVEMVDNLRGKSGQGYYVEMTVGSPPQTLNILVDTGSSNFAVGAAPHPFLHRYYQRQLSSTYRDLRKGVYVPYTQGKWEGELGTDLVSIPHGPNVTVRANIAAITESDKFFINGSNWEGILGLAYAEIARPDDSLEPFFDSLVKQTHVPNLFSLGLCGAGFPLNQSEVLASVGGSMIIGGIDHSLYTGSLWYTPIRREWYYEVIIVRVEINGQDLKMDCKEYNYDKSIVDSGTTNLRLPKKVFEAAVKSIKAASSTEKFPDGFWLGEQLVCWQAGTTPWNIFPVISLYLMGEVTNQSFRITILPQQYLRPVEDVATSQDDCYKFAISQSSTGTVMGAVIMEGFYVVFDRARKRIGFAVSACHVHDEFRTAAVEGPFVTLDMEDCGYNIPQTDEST", "assay": "kinetic inhibition of memapsin 2, fluorogenic substrate"}, "[2]": {"target": "T1, memapsin 2 (spontaneously activated …)", "assay": "bead library probed with 4 nM memapsin 2, OM99-2 wash, anti-memapsin 2 IgG and alkaline phosphatase staining"}, "[3]": {"target": "T1, memapsin 2 (spontaneously activated …)", "assay": "inhibition of cleavage of fluorogenic substrate FS-2"}, "[4]": {"target": "T2, memapsin 1 (amino acid residues 58-461 of SEQ ID NO: 4) (Homo sapiens (Human), UniProt Q9Y5Z0 63-466)", "T2 construct": "also called Mep1; M1", "T2 sequence": "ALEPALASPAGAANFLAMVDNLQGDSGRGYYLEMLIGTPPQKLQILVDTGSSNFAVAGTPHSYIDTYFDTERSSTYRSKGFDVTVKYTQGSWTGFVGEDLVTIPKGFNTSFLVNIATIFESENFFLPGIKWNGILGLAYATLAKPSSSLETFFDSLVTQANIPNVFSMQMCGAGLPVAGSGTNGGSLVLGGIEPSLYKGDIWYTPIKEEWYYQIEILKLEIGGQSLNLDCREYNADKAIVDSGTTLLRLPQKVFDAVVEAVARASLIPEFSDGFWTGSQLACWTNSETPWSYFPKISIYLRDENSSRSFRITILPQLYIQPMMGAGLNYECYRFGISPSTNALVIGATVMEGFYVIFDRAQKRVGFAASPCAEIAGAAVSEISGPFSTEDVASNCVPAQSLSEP", "assay": "inhibition of cleavage of fluorogenic substrate FS-2"}, "[5]": {"target": "T2, memapsin 1 (amino acid residues 58-461 …)", "assay": "ratio of Ki apparent for memapsin 1 to that for memapsin 2"}, "[6]": {"target": "T1, memapsin 2 (spontaneously activated …)", "assay": "inhibition of cleavage of a fluorogenic substrate"}}, "note": "Where no end group is shown, it is not given here. [ ]: non-standard residue; d: D form. FAM = 5-(and 6-)carboxyfluorescein; resin = not defined here; Ahx = NCCCCCC(=O)O"}
{"binder": "B1", "values": [{"measurement": "Ki", "setting": "[1]", "value": 35, "unit": "nM"}]}
{"binder": "B2", "values": [{"measurement": "Ki apparent", "setting": "[1]", "value": 58, "unit": "nM"}]}
{"binder": "B3", "values": [{"measurement": "binding result", "setting": "[2]", "value": "binds"}]}
{"binder": "B4", "values": [{"measurement": "Ki apparent", "setting": "[1]", "value": 39, "unit": "nM"}]}
{"binder": "B5", "values": [{"measurement": "Ki apparent", "setting": "[3]", "value": 0.31, "unit": "nM"}, {"measurement": "Ki apparent", "setting": "[4]", "value": 0.18, "unit": "nM"}, {"measurement": "Ki apparent (M1/M2)", "setting": "[5]", "value": 0.59}, {"measurement": "Ki", "setting": "[6]", "value": 0.31, "unit": "nM"}, {"measurement": "fold improvement of Ki relative to OM99-2", "setting": "[6]", "value": 5.2, "unit": "fold"}, {"measurement": "fold lower Ki than OM99-2", "setting": "[6]", "value": "~5", "unit": "fold"}]}
